Experimental data as given in PMC3025556.

T1: NIP7 (human, recombinant) (Homo sapiens, UniProt Q9Y221 1-180)
T1 sequence: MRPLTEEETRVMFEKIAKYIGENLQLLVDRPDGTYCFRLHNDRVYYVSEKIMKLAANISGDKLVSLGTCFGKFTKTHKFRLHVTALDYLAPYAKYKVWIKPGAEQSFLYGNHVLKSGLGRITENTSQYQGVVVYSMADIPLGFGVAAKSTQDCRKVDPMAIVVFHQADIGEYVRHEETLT

T2: Nip7p (yeast) (Saccharomyces cerevisiae, UniProt Q08962 1-181)
T2 sequence: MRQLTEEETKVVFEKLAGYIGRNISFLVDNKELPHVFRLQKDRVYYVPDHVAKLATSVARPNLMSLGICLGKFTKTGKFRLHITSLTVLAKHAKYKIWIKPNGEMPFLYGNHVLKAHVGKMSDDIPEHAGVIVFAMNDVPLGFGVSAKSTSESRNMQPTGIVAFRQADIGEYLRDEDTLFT

B1: poly-AU(21) (ssRNA)
RNA: UUAUUAUUUAUUUAUUAUUUA
B2: poly-U(20) (ssRNA)
RNA: UUUUUUUUUUUUUUUUUUUU

Key:
[1] = target: T1, NIP7 (human, recombinant); assay: EMSA
[2] = target: T2, Nip7p (yeast); assay: EMSA

Binder | binding result [1] | binding result [2]
B1 | binds | –
B2 | – | binds
